Measured values from patent US20210253718A1, “FRIZZLED5 PROTEIN-BINDING AGENTS” (Modmab Therapeutics Corporation, priority 2016, published 2021).

Assays:
[1] = system: ASPC-1 cells; test: Effect of anti-FZD5 Fabs on proliferation of pancreatic cancer cell lines (percent growth inhibition); format: cell-based, human; conditions: Fab 2 μg/ml
[2] = system: PATU8988S cells; test: as above; format: cell-based, human; conditions: Fab 2 μg/ml
[3] = biological target: T1, FZD4 CRD (Homo sapiens, UniProt Q9ULV1); test: Flow cytometry of anti-FZD5 Fab binding to CHO cells overexpressing Frizzled CRD
T1 construct: E42-V167; GPI anchor signal (C); expressed in transfected cells; host or cells: CHO cells, lentiviral pLenti-puro
T1 sequence (Q9ULV1 42-167): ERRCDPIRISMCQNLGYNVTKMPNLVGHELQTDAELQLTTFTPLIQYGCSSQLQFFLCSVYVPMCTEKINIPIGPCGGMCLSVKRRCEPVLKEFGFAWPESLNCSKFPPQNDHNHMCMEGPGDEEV
Procedure: Plasmids: pLCKO lentiviral vector used for knockout (TKO) library construction and expression of individual gRNAs was constructed as described previously (Hart et al., 2015). Briefly, single guide RNA (sgRNA) scaffold was amplified from px330 (Addgene 42230) and cloned into pLKO.TRC005 lentiviral vector (Broad Institute, Cambridge, Mass.) using AgeI/EcoRI restriction sites. BfuAI sites were added at the 5′ end of the sgRNA scaffold for cloning the TKO library or individual gRNA target sequences. Lenti Cas9-2A-BsdR vector used to generate Cas9 stable expression cell lines was constructed as described previously (Hart et al., 2015). Briefly, lentiCRISPR pXPR_001 (Addgene 49535) was modified through removal of the sgRNA scaffold region through NdeI/EcoRI digest and blunt ends generation using Large Klenow Fragment (NEB). 2A-puro was replaced with 2A-BsdR by PCR using the NheI/MluI sites. Each of the 10 human Frizzled cysteine rich domains (CRDs) were cloned into the lentiviral expression plasmid pLenti-puro in the following cassette: FZD_CRD-MYC-GPI.
Flow cytometry: Primary staining of cells was performed by treatment with 200 nM Frizzled profiler Fab. Alexa Fluor 488 AffiniPure F(ab′)2 was used as the secondary antibody (Jackson ImmunoResearch #109-546-097). c-Myc (9E10) IgG1 (primary antibody, Santa Cruz, lot #D0306) and Alexa Fluor 488 IgG (secondary antibody, Life technologies, lot #1458649) were used as controls. Dead cells were excluded by staining with Fixable Viability Dye eFluor 660 (eBioscience, catalogue number 65-0864). All reagents were used as per manufacturer's instructions. Flow cytometry was performed on a BD FACSCanto II flow cytometer (BD Biosciences), and data were analyzed with FlowJo software (FlowJo, LLC).
To confirm that the FZD5-WNT7B circuit is not driven simply by expression and rule out the possibility of a disconnect between RNA and protein levels for the Wnt receptors in HPAF-II cells, a panel of recombinant Fabs were generated, alternatively referred to herein as ‘Frizzled profiler’, that can detect and discriminate all but one of the ten Frizzled receptors. […] To characterize the binding specificity of these Fabs on cells, a panel of 10 CHO cell lines was generated, each expressing the CRD domain of a different myc-tagged Frizzled family member anchored at the plasma membrane through a GPI anchor (CHO-myc-FZDGPI). Despite the high sequence identity between Frizzled family members (FIG. 7A, FIG. 7B), selective Fabs were identified for FZD4, FZD5, FZD6 and FZD10 as assessed by immunofluorescence and flow cytometry (FIG. 7D and FIG. 8). […] The FZD8 CRD is most homologous to that of FZD5 (FIG. 7B). These Fabs can be used to discriminate expression of FZD1, FZD2, FZD4, FZD5, FZD6, FZD7, FZD8, FZD9 and FZD10 (FIG. 7D and FIG. 8). The ‘Frizzled profiler’ therefore consists of 10 different Fabs that can be used to discriminate expression of 9 different Frizzled family members. The Frizzled profiler was then used to confirm that HPAF-II cells express FZD1, FZD5, FZD6 and possibly FZD8 (FIG. 7E).
The binding of anti-FZD5 Fabs to cell surface-expressed Frizzled protein was further determined for each member of the Frizzled family via flow cytometry and immunofluorescence analysis of a panel of 10 CHO cell lines, each ectopically over-expressing the extracellular cysteine-rich domain (CRD) of a different Frizzled protein family member.

[4] = biological target: T2, FZD7 CRD (Homo sapiens, UniProt O75084); test: Immunofluorescence of anti-FZD5 Fab binding to CHO cells overexpressing Frizzled CRD; design: key: −: no binding; +: very weak binder; ++: weak binder; +++: good binder; ++++: very good binder
T2 construct: D45-S169; GPI anchor signal (C); expressed in transfected cells; host or cells: CHO cells, lentiviral pLenti-puro
In short: (§1)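 Specificity of anti-FZD5 Fabs was tested on CHO cells displaying membrane-anchored Frizzled CRDs (myc-tagged, GPI-linked), one family member per line. Detection was by immunofluorescence.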

[5] = biological target: T3, FZD6 CRD (Homo sapiens, UniProt O60353); test: as above; design: key: −: no binding; +: very weak binder; ++: weak binder; +++: good binder; ++++: very good binder
T3 construct: S20-P146; GPI anchor signal (C); expressed in transfected cells; host or cells: CHO cells, lentiviral pLenti-puro
T3 sequence (O60353 20-146): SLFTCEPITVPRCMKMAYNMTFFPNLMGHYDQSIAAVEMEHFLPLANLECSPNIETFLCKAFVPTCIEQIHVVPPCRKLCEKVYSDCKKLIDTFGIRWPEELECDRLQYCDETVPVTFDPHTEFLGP
In short: as §1

[6] = biological target: T4, FZD10 CRD (Homo sapiens, UniProt Q9ULW2); test: as above; design: key: −: no binding; +: very weak binder; ++: weak binder; +++: good binder; ++++: very good binder
T4 construct: 30-156; GPI anchor signal (C); expressed in transfected cells; host or cells: CHO cells, lentiviral pLenti-puro
T4 sequence (Q9ULW2 30-156): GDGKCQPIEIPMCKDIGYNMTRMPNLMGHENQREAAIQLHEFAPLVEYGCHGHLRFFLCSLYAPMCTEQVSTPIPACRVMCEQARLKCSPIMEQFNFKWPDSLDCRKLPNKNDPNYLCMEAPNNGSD
In short: as §1

[7] = system: PATU8988S cells; test: Effect of anti-FZD5 Fabs on proliferation of pancreatic cancer cell lines (percent growth inhibition); format: cell-based, human; conditions: Fab 10 μg/ml
Procedure: (§2) The effect of presently disclosed anti-FZD5 Fabs on proliferation of RNF43 loss-of-function mutant pancreatic cancer cell lines HPAFII, PATU8988S and ASPC-1; and on pancreatic cancer cell line RWP1, was tested at […] and 10 μg/ml.

[8] = system: HPAFII cells; test: as above; format: cell-based, human; conditions: for percent growth inhibition, HPAFII 2 μg/ml: Fab 2 μg/ml; for percent growth inhibition, HPAFII 10 μg/ml: Fab 10 μg/ml
Procedure: as §2

[9] = system: ASPC-1 cells; test: as above; format: cell-based, human; conditions: Fab 10 μg/ml
Procedure: as §2

[10] = system: RWP1 cells; test: as above; format: cell-based, human; conditions: Fab 10 μg/ml
Procedure: as §2

[11] = system: RWP1 cells; test: as above; format: cell-based, human; conditions: Fab 2 μg/ml

Row | Molecule | percent growth inhibition, ASPC-1 2 μg/ml [1] [%] | percent growth inhibition, PATU8988s 2 μg/ml [2] [%] | Median fluorescence, Frizzled CRD overexpressed on CHO cells: FZD4 [3] | Immunofluorescence binding, Frizzled CRD overexpressed on CHO cells: FZD7 [4] | Immunofluorescence binding, Frizzled CRD overexpressed on CHO cells: FZD6 [5] | Immunofluorescence binding, Frizzled CRD overexpressed on CHO cells: FZD10 [6] | percent growth inhibition, PATU8988s 10 μg/ml [7] [%] | percent growth inhibition, HPAFII 2 μg/ml [8] [%] | percent growth inhibition, HPAFII 10 μg/ml [8] [%] | percent growth inhibition, ASPC-1 10 μg/ml [9] [%] | percent growth inhibition, RWP1 10 μg/ml [10] [%] | percent growth inhibition, RWP1 2 μg/ml [11] [%]
1 | Fab-2923: anti-FZD5 Fab with antibody variable region Fv-2923; CDR SEQ ID NOs: 35, 36, 62, 100, 138, 162 (antibody, V domains shown) VH: EVQLVESGGGLVQPGGSLRLSCAASGFNLYYYYMHWVRQAPGKGLEWVASIYSSSGSTSYADSVKGRFTISADTSKNTAYLQMNSLRAEDTAVYYCARGAMDYWGQGTLVTVSS VL: DIQMTQSPSSLSASVGDRVTITCRASQSVSSAVAWYQQKPGKAPKLLIYSASSLYSGVPSRFSGSRSGTDFTLTISSLQPEDFATYYCQQWYGYSALITFGQGTKVEIK | 35.27 | −18.54 | 10.55 | − | − | − | −19.05 | 15.14 | 18.17 | 34.00 | 40.29 | 35.90
2 | Fab-2935: anti-FZD5 Fab with antibody variable region Fv-2935; CDR SEQ ID NOs: 35, 36, 74, 111, 150, 178 (antibody, V domains shown) VH: EVQLVESGGGLVQPGGSLRLSCAASGFNIYYYYIHWVRQAPGKGLEWVASIYPSSGSTSYADSVKGRFTISADTSKNTAYLQMNSLRAEDTAVYYCARAAFDYWGQGTLVTVSS VL: DIQMTQSPSSLSASVGDRVTITCRASQSVSSAVAWYQQKPGKAPKLLIYSASSLYSGVPSRFSGSRSGTDFTLTISSLQPEDFATYYCQQWYGGYALITFGQGTKVEIK | 4.75 | 2.48 | 7.3 | − | − | − | −22.12 | −9.18 | −10.62 | 24.63 | 10.15 | −14.51
3 | Fab-2930: anti-FZD5 Fab with antibody variable region Fv-2930; CDR SEQ ID NOs: 35, 36, 69, 107, 145, 153 (antibody, V domains shown) VH: EVQLVESGGGLVQPGGSLRLSCAASGFNLSYYYIHWVRQAPGKGLEWVASIYPYSGSTSYADSVKGRFTISADTSKNTAYLQMNSLRAEDTAVYYCARGALDYWGQGTLVTVSS VL: DIQMTQSPSSLSASVGDRVTITCRASQSVSSAVAWYQQKPGKAPKLLIYSASSLYSGVPSRFSGSRSGTDFTLTISSLQPEDFATYYCQQWYGPYLITFGQGTKVEIK | 21.31 | −0.39 | 9.31 | + | − | − | −13.64 | −10.77 | 7.81 | 37.33 | 10.72 | 17.91
